Results: patent publication US7264809B1, “Methods of inhibiting platelet activation and recruitment” (Immunex Corporation, priority 1998, dated 2007)

Key:
[1] = Bleeding time and tolerability in pigs; format: in vivo, Yorkshire-Hampshire pigs
Protocol: Aspirin was administered orally on a daily basis. Placebo controls consisted of aspirin. Saline controls and solCD39 were administered as a single bolus. Time points were measured following this administration. Blood samples were obtained via an external jugular vein catheter. […] ADP-induced platelet aggregation was measured at specific time intervals following administration. The concentration of CD39 in serum as a function of time was measured using an ELISA assay.

[2] = system: murine platelets; test: Ex vivo aggregation of murine platelets; format: in vivo, C57BL/6J mice; conditions: PRP 1 hour after soluble CD39 4 mg/kg or aspirin 5 mg/kg
Protocol: C57BL/6J mice (6-8 wk) were obtained from Jackson Laboratories (Bar Harbor, Me.). […] 80 μL of 3.8% trisodium citrate was added to each mL of blood. […] The PRP contained 400-700×10^3 platelets per μL. All experiments were completed within 2 hours of blood collection. PRP (200 μL) was preincubated, for 3 min. at 37° C., with 100 μL Tris-buffered saline buffer ([…], 5 mM glucose, pH 7.4) in an aggregometer cuvette (Lumiaggregometer; Chrono-Log, Havertown, Pa.), and the platelet agonists ADP, collagen, or sodium arachidonate were added at the final concentrations indicated.

[3] = system: platelets; test: Ex vivo additive inhibition of platelet aggregation in patient platelet rich plasma; format: cell-based, human
[4] = Murine model of stroke (middle cerebral artery occlusion); format: in vivo, mice
Protocol: Anesthetized mice were maintained at 37±2° C. during and for 90 min following surgery. A midline neck incision was made and the right carotid artery exposed. Middle cerebral artery occlusion was accomplished by advancing a 13-mm heat-blunt tipped 6-0 nylon suture via an arteriotomy in the external carotid stump. The external carotid artery was cauterized to secure hemostasis, and arterial flow reestablished. […] Surgical staples were used for wound closure. […]

[5] = Phosphate release assay for ATPase activity; format: biochemical; conditions: for ATPase activity, CPM × 10^3 (net counts): Table 3, 5-day 1× COS-1 sups
Protocol: This example describes an ATPase assay that may be used to track enzyme activity. Samples (approximately 100 μl of either concentrated CM or purified polypeptide) are combined with 20 μl of 10× assay buffer (200 mM HEPES, 1.2 M NaCl, 50 mM KCl, 15 mM CaCl2, 15 mM MgCl2 and 3 mM ATP) and sterile water is added to a final volume of 200 μl. Radiolabeled ATP (0.8 μCi γ [^32P] ATP; Amersham, Arlington Heights, Ill.) is added and the mixture incubated for 20 minutes at 37° C. […] After centrifugation (14K rpm for 10 minutes), the supernatant is assayed for free ^32P using a scintillation counter. Data are expressed as raw counts or net counts, or as picomoles of ATP degraded per minute. […] The transfections were repeated and the CM (10, 20 and 30 μL, unconcentrated) was assayed essentially as described in Example 7. […] ATPase levels in CM from COS-1 cells transfected with pIL2LFlagSolCD39 increased with time in culture over at least 4 days post-transfection. To determine whether activity was affected by removal of the N-terminal FLAG® tag, COS-1 cells were transfected with pIL2LFlagSolCD39 and pIL2LSolCD39 and supernatants (sups) were harvested after 5 days. Samples of 10, 20 and 30 μL of 1× sups were assayed for ATPase activity as described in Example 7. […] The expression of Trim1 and Trim2 constructs was analyzed in COS-1 cells cultured in 10 cm plates. After 5 days of incubation, 1× supernatants were examined via ELISA (using anti-CD39) and the phosphate-release assay described in Example 7. […] Expression levels, however, appeared to be reduced 3-4 fold.

[6] = Bleeding time in mice; format: in vivo; conditions: aspirin 5 mg/kg; increasing doses of solCD39 (4, 8, 20 mg/kg)
Text: (*p<0.05, ^‡p<0.01, ^†p<0.001).
Hematological profiles, including erythrocyte parameters, platelet counts, leukocyte counts and differentials, and coagulation screening, were normal. […] Under those conditions, the defect was abolished and normal blood fluidity was restored by administration of soluble CD39.

[7] = system: platelets; test: Platelet aggregation in human platelet-rich plasma; format: cell-based
Protocol: After obtaining informed consent from volunteers, blood was collected via plastic tubing using acid citrate-dextrose (38 mM citric acid; 75 mM sodium citrate; 135 mM glucose) as anticoagulant. Where indicated, volunteers had ingested 650 mg acetylsalicylic acid (ASA) 18 h prior to blood donation. […] The stock suspension of PRP was maintained at room temperature under 5% CO2-air. […] Total volumes were adjusted to 300 μl with TSG buffer (Marcus et al., J. Clin. Invest. 88:1690, 1991; Marcus et al., J. Clin. Invest. 99:1351, 1997). […] A mock-treated sample was also prepared in which the FSBA solution was replaced with water. After incubating at 37° for 90 min., the samples were centrifuged in a Centricon-10 filter unit (Amicon Corp.) for 1 hour at 5,500 rpm and buffer exchanged into PBS to remove unreacted material.

[8] = administered three hours following stroke induction
[9] = prior to, or up to 3 h following, stroke

B1: solCD39: recombinant soluble human CD39, untagged: 12 mature huIL2 residues, three amino acid linker, sol CD39 (SEQ ID NO:7) (protein)
chain: MALWIDRMQLLSCIALSLALVTNSAPTSSSTKKTQLTSSTQNKALPENVKYGIVLDAGSSHTSLYIYKWPAEKENDTGVVHQVEECRVKGPGISKFVQKVNEIGIYLTDCMERAREVIPRSQHQETPVYLGATAGMRLLRMESEELADRVLDVVERSLSNYPFDFQGARIITGQEEGAYGWITINYLLGKFSQKTRWFSIVPYETNNQETFGALDLGGASTQVTFVPQNQTIESPDNALQFRLYGKDYNVYTHSFLCYGKDQALWQKLAKDIQVASNEILRDPCFHPGYKKVVNVSDLYKTPCTKRFEMTLPFQQFEIQGIGNYQQCHQSILELFNTSYCPYSQCAFNGIFLPPLQGDFGAFSAFYFVMKFLNLTSEKVSQEKVTEMMKKFCAQPWEEIKTSYAGVKEKYLSEYCFSGTYILSLLLQGYHFTADSWEHIHFIGKIQGSDAGWTLGYMLNLTNMIPAEQPLSTPLSHST
anemia or thrombocytopenia ([1]; pig, in vivo): did not induce
tolerability ([1]; pigs, 72-670 μg/kg bolus): well tolerated
ex vivo platelet aggregation, collagen ([2]; 2.5 μg/ml collagen): attenuated
ex vivo platelet aggregation, ADP ([2]; 10 μM ADP): abrogated
ex vivo platelet aggregation, arachidonate ([2]; 0.1 mM sodium arachidonate): attenuated
Platelet aggregation ([3]; SolCD39 10 μg/ml, ADP, Abciximab group): 0 ± 0 arbitrary units
Platelet aggregation ([3]; SolCD39 10 μg/ml, ADP, Aspirin group): 4 ± 2 arbitrary units
Platelet aggregation ([3]; SolCD39 10 μg/ml, ADP, Clopidogrel group): 5 ± 2 arbitrary units
Platelet aggregation ([3]; SolCD39 10 μg/ml, ADP, Placebo group): 0 ± 0 arbitrary units
Platelet aggregation ([3]; SolCD39 10 μg/ml, ADP, Ticlopidine group): 10 ± 2 arbitrary units
Platelet aggregation ([3]; SolCD39 10 μg/ml, Collagen, Abciximab group): 0 ± 0 arbitrary units
Platelet aggregation ([3]; SolCD39 10 μg/ml, Collagen, Aspirin group): 21 ± 4 arbitrary units
Platelet aggregation ([3]; SolCD39 10 μg/ml, Collagen, Clopidogrel group): 31 ± 9 arbitrary units
Platelet aggregation ([3]; SolCD39 10 μg/ml, Collagen, Placebo group): 75 ± 2 arbitrary units
Platelet aggregation ([3]; SolCD39 10 μg/ml, Collagen, Ticlopidine group): 48 ± 18 arbitrary units
Platelet aggregation ([3]; SolCD39 10 μg/ml, TRAP, Abciximab group): 22 ± 10 arbitrary units
Platelet aggregation ([3]; SolCD39 10 μg/ml, TRAP, Aspirin group): 38 ± 7 arbitrary units
Platelet aggregation ([3]; SolCD39 10 μg/ml, TRAP, Clopidogrel group): 35 ± 1 arbitrary units
Platelet aggregation ([3]; SolCD39 10 μg/ml, TRAP, Placebo group): 70 ± 3 arbitrary units
Platelet aggregation ([3]; SolCD39 10 μg/ml, TRAP, Ticlopidine group): 19 ± 6 arbitrary units
Platelet aggregation ([3]; SolCD39 100 μg/ml, ADP, Abciximab group): 0 ± 0 arbitrary units
Platelet aggregation ([3]; SolCD39 100 μg/ml, ADP, Aspirin group): 1 ± 0 arbitrary units
Platelet aggregation ([3]; SolCD39 100 μg/ml, ADP, Clopidogrel group): 0 ± 0 arbitrary units
Platelet aggregation ([3]; SolCD39 100 μg/ml, ADP, Placebo group): 0 ± 0 arbitrary units
Platelet aggregation ([3]; SolCD39 100 μg/ml, ADP, Ticlopidine group): 2 ± 2 arbitrary units
Platelet aggregation ([3]; SolCD39 100 μg/ml, Collagen, Abciximab group): 0 ± 0 arbitrary units
Platelet aggregation ([3]; SolCD39 100 μg/ml, Collagen, Aspirin group): 16 ± 4 arbitrary units
Platelet aggregation ([3]; SolCD39 100 μg/ml, Collagen, Clopidogrel group): 21 ± 6 arbitrary units
Platelet aggregation ([3]; SolCD39 100 μg/ml, Collagen, Placebo group): 57 ± 5 arbitrary units
Platelet aggregation ([3]; SolCD39 100 μg/ml, Collagen, Ticlopidine group): 37 ± 15 arbitrary units
Platelet aggregation ([3]; SolCD39 100 μg/ml, TRAP, Abciximab group): 22 ± 9 arbitrary units
Platelet aggregation ([3]; SolCD39 100 μg/ml, TRAP, Aspirin group): 26 ± 5 arbitrary units
Platelet aggregation ([3]; SolCD39 100 μg/ml, TRAP, Clopidogrel group): 23 ± 3 arbitrary units
Platelet aggregation ([3]; SolCD39 100 μg/ml, TRAP, Placebo group): 65 ± 4 arbitrary units
Platelet aggregation ([3]; SolCD39 100 μg/ml, TRAP, Ticlopidine group): 18 ± 7 arbitrary units
fibrin accumulation in the ipsilateral hemisphere ([4]; 8 mg/kg, Western blot): decreased
postischemic cerebral perfusion / blood flow ([4]; 24 hours after stroke induction): improved
infarction volume [4, 8]: reduced
postischemic blood flow [4, 8]: restored
intracerebral hemorrhage ([4]; following stroke, spectrophotometric): no significant increase
cerebral infarct volume ([4]; preoperative administration, aspirin 5 mg/kg): dose-dependent diminution
platelet accumulation in the ipsilateral cerebral hemisphere ([4]; pretreated with 8 mg/kg i.v.): inhibited
mortality [4, 9]: reduced
neurological deficit [4, 9]: reduced
infarct volume in CD39−/− mice ([4]; reconstituted CD39−/− mice): markedly diminished
ATPase activity, CPM × 10^3 (net counts) ([5]; 10 μL): 20.1 CPM × 10^3
ATPase activity, CPM × 10^3 (net counts) ([5]; 20 μL): 36.0 CPM × 10^3
ATPase activity, CPM × 10^3 (net counts) ([5]; 30 μL): 51.0 CPM × 10^3
Activity (pmol ATP/min/μg) × 10^3 ([5]; specific activity in COS-1 CM, concentration by ELISA): 5.67 (pmol ATP/min/μg) × 10^3
bleeding times [6]: markedly increased
platelet aggregation induced by 10 μM ADP ([7]; 3.3 μg/ml solCD39, PRP from aspirin-ingesting donor): abruptly terminated
induction of platelet activation by ADP or collagen ([7]; ASA-treated PRP, 10 μM ADP (4.4 μg/ml) or collagen (22 μg/ml)): significantly inhibited
effect on collagen-induced aggregation with increasing quantity ([7]; PRP from aspirin-ingesting donor): dose dependent
platelet responsiveness to 5 μM ADP ([7]; PRP with or without 10 μM indomethacin, CM containing solCD39 from COS-1 and CHO cells): completely abrogating
platelet aggregation response to collagen ([7]; collagen 1 μg/ml, PRP): markedly reduced
